# Test results from publication PMC5777259.
# Tests used:
# [1] = target: acto-NM-2B (filamentous β-actin with NM-2B–HMM) (human) (UniProt P60709); test: co-sedimentation; 6:1 acto–Tpm mixture (6 μM β-actin, 1 μM Tpm) with 0–16 μM NM-2B–HMM, 30 min; 20 mM MOPS pH 7.0, 5 mM MgCl2, 50 mM KCl; pelleted 20 min at 100,000 × g; Hill fit
# [2] = target: filamentous β-actin (human) (UniProt P60709); test: co-sedimentation; 10 μM β-actin preincubated with 0–10 μM Tpm for 30 min at room temperature; 20 mM MOPS pH 7.0, 5 mM MgCl2, 100 mM KCl; SDS-PAGE densitometry of supernatant and pellet; Hill fit, apparent constants (K50%)
# [3] = target: Tpm3.1-enveloped filamentous β-actin (human) (UniProt P60709); test: stopped-flow light scattering; 4 μM NM-2B0 mixed with 0.5–4 μM bare actin or actin-Tpm complex, light scattering at 405 nm; 20 °C; 20 mM MOPS pH 7.0, 100 mM KCl, 5 mM MgCl2; no nucleotide; k+A from the slope, k−A from the y intercept, KA = k−A/k+A
# [4] = target: Tpm1.12-enveloped filamentous β-actin (human | rat) (UniProt P60709); test: as above
Kd [1],Kd [2],Kd [3],Kd [4],Substance
< 100 nM,100 nM,–,–,Tpm1.8cy (b.–.b.d) (natural protein)
–,–,30 nM,80 nM,"single-headed construct NM-2B0 (motor domain of human NM-2B0, residues 1–782, two Dictyostelium discoideum α-actinin repeats, C-terminal octahistidine tag) (from UniProt P35580 1-782) (domain or fragment)"
